From the supplement of paper PMC9170038

Test system: MS2 coat protein
Assay: apparent KD of MS2 coat protein; designed switch direction (-1 OFF switch, 1 ON switch): -1; higher = weaker reporter binding
How it was run: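 Stalled E. coli RNA polymerase transcribed designed RNA switches on Illumina chips, which were then titrated with SNAP-549-labelled MS2 coat protein, doubling from 0.7 or 1.5 nM to 3 µM. Steps lasted from 0.8–1.5 h at the lowest concentration to 10–20 min at the highest. The apparent KD is each design's median over clusters of curve-fitted normalised fluorescence.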

[1] = Eterna round: R95, input ligand: FMN 200 uM
[2] = Eterna round: R95, input ligand: microRNA oligo, concentration not stated
[3] = Eterna round: R95, input ligand: none
[4] = input ligand: microRNA oligo, concentration not stated

Sequence | apparent KD of MS2 coat protein [1] [nM] | apparent KD of MS2 coat protein [2] [nM] | apparent KD of MS2 coat protein [3] [nM] | apparent KD of MS2 coat protein (input ligand: FMN 200 uM) [nM] | apparent KD of MS2 coat protein [4] [nM] | apparent KD of MS2 coat protein (input ligand: none) [nM]
AAUAAGUGAGGAUAUGCAAUAAUAAAUAAAAUAAUAAAUAAGCAGAAGGCACAUGAGGAUCACCCAUGUAAUAA [JMF's solution 1] (puzzle: Exclusion 4) | 29.2 | 20.8 | 21.6 |  |  | 
GGAUAAAAGGCAGGAUAUACGUAUCACUAACGAGUAGAAGGGCCACAUGAGGAUCACCCAUGUGAGUUCUCAAUAAGAAACACG [Prohibition 63 - Jieux - Exclusion NG 1] (Eterna round: R96, puzzle: Exclusion NG 1) |  |  |  | 15.3 | 10.7 | 14.2
CCCAGGGCAGGAUAUAGAGGGCUAAACAUGAGGAUCACCCAUGUGACCUCGGAACAGUUGCUAGAAGGGCCAGAUU [Maedonxe] (puzzle: Exclusion 5) | 29.8 | 17.7 | 22 |  |  | 
AGUUCUAACACGAAAGUGUUAGUACAAUAAGCUUGUGAAACAUGAGGAUCACCCAUGUCCUCAUAAGCUCGUCUUAU [salish99_TOv2_r3_013] (puzzle: Sensor v3, turn-off variant 2) | 15.4 | 667 | 14.7 |  |  | 
AGUCAGGCGGUAGGAUAUCCAAAUCGAGUGACCCUCUCAUAACAUGAGGAUCACCCAUGUCGGUGGGAGAAGGGCCGUAAGGCA [Mat - Exclusion NG 2 - Mod of JL - D64] (Eterna round: R96, puzzle: Exclusion NG 2) |  |  |  | 33 | 16.4 | 30.9
AUGAGACAUGAGGAUCACCCAUGUGAGGAUAUGUAUGGAUGUUGGAAAGAAUGAGAGAACAGAAGGCACGUAGA [JR_Exclu1_Sub063] (puzzle: Exclusion 1) | 93.1 | 104 | 149 |  |  | 
UUUGAUUGCACAGGAUAUUGUCAUUUGAGUUGUCAAGAAGGGUGUACAUGAGGAUCACCCAUGUAAUGGUUGCCUCGCUGACUU [JR_ExcNG1_Sub008] (Eterna round: R96, puzzle: Exclusion NG 1) |  |  |  |  | 77.1 | 
UUUUUAUAUGAAGGAUAUACUAAACAUGAGGAUCACCCAUGUGGUGUUGUGAGUGAGAGAGAUAAGUAGAAGGUCAAUUAUUUU [JMF's solution 4] (Eterna round: R96, puzzle: Exclusion NG 2) |  |  |  | 348 | 62.6 | 90.8
ACUCAACAGUAGGAUAUCAUCAAACUAUUGUGAUGAGAAGGACUGACAUGAGGAUCACCCAUGUUAACGUGAAG [Mod of Brourd 3 - Jieux - Exclusion 6] (Eterna round: R97, puzzle: Exclusion 6) |  |  |  | 41.8 |  | 28.4
GUGGUUUGUGUAGGAUAUUCGUUUGUGCGGUGCGGAGAAGGACAUGAGGAUCACCCAUGUGUGCGAGGAUCACCCGUGUGUUGU [double 2 (less A)] (Eterna round: R96, puzzle: Exclusion NG 1) |  |  |  | 55.6 | 40.3 | 50.5
AAUAACAGAGGAUAUACUGUUUUAUGUAUUUAUUAUUUUGAACAUGAGGAUCACCCAUGUAGAAGGCUGAUUGA [JMF 75] (puzzle: Exclusion 2) |  | 31.7 |  |  |  | 
CCAUAUUCGAAGGAUAUGCAAUUGGAUAGAUUCGCAGAAGGUCGAACAUGAGGAUCACCCAUGUCCCUGGUGAA [Eternabot (L2) Solution 89] (Eterna round: R97, puzzle: Exclusion 6) |  |  |  | 903 |  | 133
GUCCUGGACUAUCACAAGCACAUGAGGAUCACCCAUGUCAUGGGUAGAUUUAUAAAUAAAGAUACUGCUCGUCUUAU [Cac Sensor turn off var1 sub7] (Eterna round: R97, puzzle: Sensor, turn-off variant 1) |  |  |  | 197 |  | 252
GUCGUGCGGCUUUGCUGUACGAGUACAUGAGGAUCACCCAUGUAGGAUAUGGUUCGCUUUGCGUGCCAGAAGGGCGUGCGUUGG [Excl-NG3-LRO12] (Eterna round: R96, puzzle: Exclusion NG 3) |  |  |  | 31.3 | 21.6 | 31.1
AGAGAGUCAGGAUAUCGAAGGGAGAGAAAAGGAGAGAGGUACGAGAAGGGACAUGAGGAUCACCCAUGUAGGUG [JR_Exclusion4)Sub015] (puzzle: Exclusion 4) | 279 | 413 | 622 |  |  | 
CACCGUUAAGUAGGAUAUCGUACAUGAGGAUCACCCAUGUAAUAAAUGAGAAUUUCGGAUGUAUGCGAGAAGGACUAAAUCGGC [Ostricism 45 - Jieux - Exclusion NG 2] (Eterna round: R96, puzzle: Exclusion NG 2) |  |  |  |  | 39 | 
UUUUUGUCAGGAUAUGCAUGUUUUUUUUUUUUUUUUUUCAUGCAGAAGGGACAUGAGGAUCACCCAUGUAGUUU [Ex4 - 3 - 10] (Eterna round: R96, puzzle: Exclusion 4) |  |  |  | 53.7 | 61.7 | 63.2

Sequence | apparent KD of MS2 coat protein [1] [nM] | apparent KD of MS2 coat protein [2] [nM] | apparent KD of MS2 coat protein [3] [nM] | apparent KD of MS2 coat protein (input ligand: FMN 200 uM) [nM] | apparent KD of MS2 coat protein [4] [nM] | apparent KD of MS2 coat protein (input ligand: none) [nM]
UUUUUCGGACAAGCUACGUACAUGAGGAUCACCCAUGUCGGUAGAUUUGAGUAGGUUUGGAUGGAAGCUCGUCUUAU [JR_SV3TOV1_Sub084] (puzzle: Sensor v3, turn-off variant 1) | 40.9 | 53.5 | 53.2 |  |  | 
UGGCUGCUCAGGGAGUGUGACAUGAGGAUCACCCAUGUGGUAGUAAGGAACAAGCUUUUUACACGUACUUAUAAAGC [JR_SV3TOV1_Sub011] (puzzle: Sensor v3, turn-off variant 1) | 157 | 135 | 296 |  |  | 
UUCAUGUUAGGAUAUUCCGCUGCAGAGAAAGAGUGCAGAAUGAAGAAGGGACAUGAGGAUCACCCAUGUUCCAA [EX4 A.8] (Eterna round: R97, puzzle: Exclusion 4) |  |  |  | 19.5 |  | 15.5
AGUAACAGAGGAUAUACUGUUUUAUGUGUUUGUUAUUUUGAACAUGAGGAUCACCCAUGUAGAAGGCUGAAUAA [JMF 92] (puzzle: Exclusion 2) |  | 20 |  |  |  | 
UCUGGUCGAGGAUAUACAUUCGUGCUUCGGCACGUAAGAUCACAUGAGGAUCACCCAUGUAGAAGGCGACCAGA [E2/5-A3] (Eterna round: R97, puzzle: Exclusion 2) |  |  |  | 1050 |  | 98.8
GUGAUCUAUCAUGUAAUGAACAUGAGGAUCACCCAUGUAGGCAAGUUUUUUGCUCGUCACAUAAUAAGAUAGAUCAC [Antenna 19 - Jieux - Sensor, turn-off variant 1] (Eterna round: R97, puzzle: Sensor, turn-off variant 1) |  |  |  | 14.3 |  | 13.2
AGCUGUGGCCGAGGAUAUCUAAUAUCCCUAACCGAAAUAUAAUCGGACAUGAGGAUCACCCAUGUAGAGAAGGCGGUCUCAGCA [Eli eng2 - 065] (Eterna round: R96, puzzle: Exclusion NG 2) |  |  |  | 211 | 19.3 | 20.8
AACCUGAGGCUUUGCUUUAGGUGUACAUGAGGAUCACCCAUGUAGGAUAUGGUAGGCAAAGCUUACCAGAAGGACAUUUAGGUU [Mat - Exclusion NG 3 - Mod of JL - D43] (Eterna round: R96, puzzle: Exclusion NG 3) |  |  |  | 72.8 | 34.3 | 41.4
AGAUUGAAUGAGGAUAUCGUUGCGGGUACGUAGCGAGAAGGCAUGACAUGAGGAUCACCCAUGUAGUGUGGGUU [JR_Ex6_Sub019] (Eterna round: R97, puzzle: Exclusion 6) |  |  |  | 805 |  | 336
GUCCGGCAUGUAGGAUAUGGAUCCGAUUAGGAUUUAGAAGGACAUGAGGAUCACCCAUGUACAUUUAAUUAGUCAUUACCGGAC [EXclNG1-LROPPY03] (Eterna round: R96, puzzle: Exclusion NG 1) |  |  |  | 14.6 | 9.47 | 14.9
CAGUACUGAGGAUAUACAUGAGGAUCACCCAUGUGUUCCAGCUAGGAAACUAGGAAAAGUAGAAGGCAGUACUG [salish99_ex3_r3_069] (puzzle: Exclusion 3) |  | 23.1 |  |  |  | 
AAAACGUGAGGAUAUCCAAUAUAUGACAUGAGGAUCACCCAUGUUUCCACUCGUACCUCCGGAGAAGGCACAUUUU [Ex5 #79] (Eterna round: R97, puzzle: Exclusion 5) |  |  |  | 62.7 |  | 67
UCCCGUGAAGGAUAUGGUUACAGGCACAUGAGGAUCACCCAUGUCACCUCGAAUACCUGAUCAGAAGGUUACUCGA [Eternabot (Original) Solution 40] (Eterna round: R97, puzzle: Exclusion 5) |  |  |  | 20.1 |  | 19.9
UCACGGGACUAAGGAUAUAUGAGUACCAUUUACAUAGAAGGUAGAAUGUUAGAUCAUAAACUAAACAUGAGGAUCACCCAUGUU [JR_ExcNG1_Sub092] (Eterna round: R96, puzzle: Exclusion NG 1) |  |  |  |  | 15.3 | 
UUUUUGUGAGGAUAUCAGUAGUAAAAAAAUAAAAUUACUACUGAGAAGGCACAUGAGGAUCACCCAUGUUUUUU [salish99_ex4_r3_013] (puzzle: Exclusion 4) |  | 43.3 |  |  |  | 
GGCUAGUCAGGAUAUACGAACAUGUCAAAAGACGUGAAGGGACAUGAGGAUCACCCAUGUAGAAGGGACUAGCC [salish99_ex2_r3_004] (Eterna round: R96, puzzle: Exclusion 2) |  |  |  | 181 | 21.9 | 27.5
